The results in this text go back to article PMC5240567, “New Insights into Cooperative Binding of Homeodomain Transcription Factors PREP1 and PBX1 to DNA”.

Series [1] has as its target T1, PREP1hd (UniProt P55347).
T1 sequence: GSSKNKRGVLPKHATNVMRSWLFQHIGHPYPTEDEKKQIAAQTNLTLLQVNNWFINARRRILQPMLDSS
The experiment in a line: fluorescence polarization. The conditions noted are these: FP and EMSA: 20 mM Na/K phosphate pH 7.2, 150 mM NaCl, 5% glycerol, 1 mM TCEP, room temperature (FP 9 nM DNA, 30 min; EMSA gel run at 4 C in 0.5x TBE); NMR: ….

Another series addresses T2, PBX1HD (UniProt P40424 227-317).
T2 sequence: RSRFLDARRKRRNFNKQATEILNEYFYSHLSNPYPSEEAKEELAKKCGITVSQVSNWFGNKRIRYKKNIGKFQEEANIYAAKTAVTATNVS
The experiment in a line: fluorescence polarization; FP and EMSA: 20 mM Na/K phosphate pH 7.2, 150 mM NaCl, 5% glycerol, 1 mM TCEP, room temperature (FP 9 nM DNA, 30 min; EMSA gel run at 4 C in 0.5x TBE); NMR: 20. As to conditions: protein: recombinant, tags: GST cleaved (pGEX-6P). Background: In fluorescence polarisation assays a small probe gives low polarisation when free and higher when bound to something large.

Series [2] concerns the target T3, HOXB1HD (UniProt P14653 171-266). Described as above. As to conditions: protein: recombinant, tags: GST cleaved (pGEX-6P), label: 5' 6-FAM (FP).
Series [3] addresses T4, PREP1hd (UniProt P55347 257-325).
T4 sequence: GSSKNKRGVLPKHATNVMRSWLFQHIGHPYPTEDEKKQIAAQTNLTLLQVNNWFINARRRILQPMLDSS
The series is described as above. As to conditions: protein: recombinant, tags: GST cleaved (pGEX-6P), label: 5' 6-FAM (FP).

Series [4] addresses T5, PREP1HD (UniProt P55347 240-344).
T5 sequence: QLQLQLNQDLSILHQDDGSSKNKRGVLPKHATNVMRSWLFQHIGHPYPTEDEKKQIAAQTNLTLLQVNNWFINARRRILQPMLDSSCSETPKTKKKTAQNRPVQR
The description is as above. As to conditions: protein: recombinant, tags: GST cleaved (pGEX-6P), label: 5' 6-FAM (FP).

The target in series [5] is T3, HOXB1HD. The experiment in a line: EMSA; FP and EMSA: 20 mM Na/K phosphate pH 7.2, 150 mM NaCl, 5% glycerol, 1 mM TCEP, room temperature (FP 9 nM DNA, 30 min; EMSA gel run at 4 C in 0.5x TBE); NMR: 20. As to conditions: protein: recombinant; tags: GST cleaved (pGEX-6P); label: 5' 6-FAM (FP); unlabeled in EMSA. (Mobility shift assays separate free from complexed probe on a gel.)

In a further series the target is T6, PREP1hd-N (UniProt P55347 240-325).
T6 sequence: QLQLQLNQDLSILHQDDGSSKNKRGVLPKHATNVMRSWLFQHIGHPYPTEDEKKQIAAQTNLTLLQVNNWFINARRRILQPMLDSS
The experiment in a line: fluorescence polarization; FP and EMSA: 20 mM Na/K phosphate pH 7.2, 150 mM NaCl, 5% glycerol, 1 mM TCEP, room temperature (FP 9 nM DNA, 30 min; EMSA gel run at 4 C in 0.5x TBE); NMR: 20. As to conditions: protein: recombinant; tags: GST cleaved (pGEX-6P); label: 5' 6-FAM (FP); unlabeled in EMSA and NMR.

For another series, the target named is T7, PREP1hd-C (UniProt P55347 257-344).
T7 sequence: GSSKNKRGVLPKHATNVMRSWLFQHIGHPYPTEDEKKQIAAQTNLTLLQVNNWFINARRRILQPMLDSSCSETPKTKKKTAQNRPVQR
The description is as above. As to conditions: protein: recombinant; tags: GST cleaved (pGEX-6P); label: 5' 6-FAM (FP); unlabeled in EMSA and NMR.

[6] abbreviates: label: 5' 6-FAM (FP), unlabeled in EMSA.

T3 sequence (P14653 171-266): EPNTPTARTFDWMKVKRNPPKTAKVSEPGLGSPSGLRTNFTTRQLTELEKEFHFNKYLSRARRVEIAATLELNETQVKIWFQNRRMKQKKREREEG

In the series with PREP1hd [1], “AGGATAACCTGGGATT (double strand) [Control]” yielded a Kd of 836 µM.

B1: Control* (dsDNA)
DNA 1: CGTCAGCCCTACGGGA
DNA 2: TCCCGTAGGGCTGACG
Consider B1, for which, in the series with PBX1HD (label: 5' 6-FAM), the Kd was 2.1 ± 0.1 µM.

B2: PH (dsDNA)
DNA 1: AGAGTGATTGATAAGG
DNA 2: CCTTATCAATCACTCT
As to B2, the Kd in the series with HOXB1HD [2] (unlabeled in EMSA) was found to be 6.2 ± 0.1 µM; with PREP1hd [3] (unlabeled in EMSA), 51.4 ± 2.5 µM; with PBX1HD (setting [6]), 2.1 ± 0.3 µM; in the series with PREP1HD [4] (unlabeled in EMSA) it was 23.5 ± 2 µM.

B3: Control (dsDNA)
DNA 1: AGGATAACCTGGGATT
DNA 2: AATCCCAGGTTATCCT
Regarding B3, the binding result in the series with HOXB1HD [5] is on record as “binds”. Besides, the Kd with PBX1HD (setting [6]) amounted to 2.5 ± 0.4 µM; with PREP1HD [4] (unlabeled in EMSA) it was 159 ± 5.2 µM.

B4: PH* (dsDNA)
DNA 1: AGAGTGATTGATCGGC
DNA 2: GCCGATCAATCACTCT
Regarding B4, the Kd in the series with PBX1HD (label: 5' 6-FAM) was determined as 3.3 ± 0.5 µM.

B5: PMH (dsDNA)
DNA 1: AGTGATTGACAGATTC
DNA 2: GAATCTGTCAATCACT
As for B5, the Kd with HOXB1HD [2] (unlabeled in EMSA and NMR) is 2.7 ± 0.2 µM; with PREP1hd [3] (unlabeled in EMSA and NMR), 31.8 ± 1.5 µM; with PBX1HD (label: 5' 6-FAM (FP), unlabeled in EMSA and NMR), 0.36 ± 0.1 µM; with PREP1hd-N, 23.7 ± 2.6 µM; in the series with PREP1HD [4] (unlabeled in EMSA and NMR), 15.4 ± 1 µM; with PREP1hd-C, 15.5 ± 0.6 µM.

Broadly, the Kd is the free concentration of one partner at which half of the binding sites on the other are occupied at equilibrium, for simple one-to-one binding.
